Results as given in patent US20230051715A1 (MABWELL THERAPEUTICS, published 2023).
Values belong to the binder of their own block, whether it stands above or below them.

Experiments:
[1] = molecular target: T1, human C1s mutant M5 (K336G) (human, UniProt P09871 16-688); assay: ELISA, plate coated with human C1s mutant M5: K336G, OD450nm
T1 construct: The entry is the mutant itself
T1 sequence: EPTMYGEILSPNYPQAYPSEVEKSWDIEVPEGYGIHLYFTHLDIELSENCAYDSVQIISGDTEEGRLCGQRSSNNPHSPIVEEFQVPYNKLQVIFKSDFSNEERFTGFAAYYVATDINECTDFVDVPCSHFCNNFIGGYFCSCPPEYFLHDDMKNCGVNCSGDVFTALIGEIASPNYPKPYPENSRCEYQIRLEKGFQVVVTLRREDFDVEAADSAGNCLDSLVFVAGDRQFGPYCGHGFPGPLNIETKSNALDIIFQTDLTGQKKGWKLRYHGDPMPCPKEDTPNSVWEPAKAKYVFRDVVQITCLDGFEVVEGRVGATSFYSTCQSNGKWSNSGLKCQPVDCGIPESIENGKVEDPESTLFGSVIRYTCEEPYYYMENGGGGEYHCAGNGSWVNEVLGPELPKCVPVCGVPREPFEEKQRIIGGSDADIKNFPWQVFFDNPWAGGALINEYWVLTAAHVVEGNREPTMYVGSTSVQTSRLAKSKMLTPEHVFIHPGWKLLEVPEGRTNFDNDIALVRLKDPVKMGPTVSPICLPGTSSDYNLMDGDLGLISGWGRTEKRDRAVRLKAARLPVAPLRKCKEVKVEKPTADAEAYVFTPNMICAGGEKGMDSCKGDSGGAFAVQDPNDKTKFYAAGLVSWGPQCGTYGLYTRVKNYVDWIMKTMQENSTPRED
Experimental: ELISA was carried out by first coating 96-well plates with 200 ng/well of full-length or truncated C1s proteins overnight. The next morning, plates were blocked with SuperBlock T20 blocking buffer (Thermo Scientific 37536) for 1 h with gentle shaking. Then, various concentrations of anti-C1s antibodies diluted in SuperBlock T20 blocking buffer were added to the plates and incubated for 1 h with gentle shaking. Mouse IgG (Sigma-Aldrich 15381) and human IgG1 (BioXCell BP0297) were used as negative controls. The plates were washed before incubating with HRP conjugated secondary antibodies diluted in SuperBlock T20 blocking buffer (goat anti-mouse IgG (H+L) cross-adsorbed secondary antibody HRP (Invitrogen G-21040) or goat anti-human IgG antibody, HRP conjugate (Millipore AP309P)) for 1 h with gentle shaking. At last, the plates were washed and color developed with ELISA liquid HRP substrate (Sigma-Aldrich), followed by stopping the reaction with addition of 1M H₂SO₄ in the same volume as the ELISA liquid substrate. Bound antibody was measured by absorbance at OD₄₅₀ₙₘ.
Binding of anti-C1s antibodies to mutants M1-M20 of human C1s was measured by ELISA as described in Example 4, and results are shown in FIGS. 6B-6U. […]

[2] = molecular target: T2, cynomolgus monkey C1s (produced in house) (cynomolgus monkey, UniProt P09871 16-685 (human entry), limits assumed); assay: BLI (Octet RED96e), antibody on AHC biosensor; C1s Species: Cyno Monkey; R^2 0.9996
T2 construct: also called CyC1s
T2 chain: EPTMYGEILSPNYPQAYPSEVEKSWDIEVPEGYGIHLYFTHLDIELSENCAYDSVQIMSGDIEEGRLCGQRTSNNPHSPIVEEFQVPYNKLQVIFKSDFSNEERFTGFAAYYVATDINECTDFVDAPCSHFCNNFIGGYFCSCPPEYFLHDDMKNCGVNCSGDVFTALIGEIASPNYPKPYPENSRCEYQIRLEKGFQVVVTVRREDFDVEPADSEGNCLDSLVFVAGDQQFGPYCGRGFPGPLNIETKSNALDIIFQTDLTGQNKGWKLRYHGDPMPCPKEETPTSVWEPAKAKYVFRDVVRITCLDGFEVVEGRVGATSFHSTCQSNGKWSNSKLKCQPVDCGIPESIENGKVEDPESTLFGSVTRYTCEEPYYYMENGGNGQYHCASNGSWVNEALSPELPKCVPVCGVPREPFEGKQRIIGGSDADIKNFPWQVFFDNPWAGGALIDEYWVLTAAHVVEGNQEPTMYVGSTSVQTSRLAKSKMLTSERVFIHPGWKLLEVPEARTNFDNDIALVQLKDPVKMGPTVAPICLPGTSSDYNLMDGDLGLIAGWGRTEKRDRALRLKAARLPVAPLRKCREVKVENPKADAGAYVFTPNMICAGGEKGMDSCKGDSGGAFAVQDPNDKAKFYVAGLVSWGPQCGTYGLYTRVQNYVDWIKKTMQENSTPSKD
Source text: At last, analyte was dissociated in 1×KB for 360 sec. Data analysis was done using OCTET® Data Analysis HT Software (Sartorius AG).

EC50 [1]: 0.015 µg/mL
B1: Anti-C1s antibody hz2-7(H1L2) (antibody, V domains shown)
VH: EVQLLESGGGLVQPGGSLRLSCAASGFTFSNYFMNWVRQAPGKGLEWVSEIRLKFTNYATHYADSVKGRFTISRDDSKSTLYLQMNSLRAEDTAVYYCTRDYGSRNGYFDYWGQGTLVTVSS
VL: DIVMTQTPLSLPVTPGEPASISCRSSKSLLHSNGNTFLYWFLQKPGQSPQLLIYRMSNLASGVPDRFSGSGSGTDFTLKISRVEAEDVGVYYCMQHLEYPYTFGGGTKLEIKR
notes: Humanized, human IgG1 / kappa; also called hz2-7(1L2)

Kd [2]: 1.1 nM | koff [2]: 0.00028 s⁻¹ | kon [2]: 260000 M⁻¹ s⁻¹
B2: Anti-C1s antibody 2-8 (antibody, V domains shown)
VH: EVQLQQSGAELVRPGALVKLSCKASGFNIKEYYMHWVKQRPEQGLEWIGWIDPENGDTIYDPKFQGKASITADTSSNTAYLQLSSLTSEDTAVYYCARSRLFFAYWGQGTLVTVSA
VL: DIVMTQSHKFMSTSVGDRVSFTCKASQDVRTAVDWYQQKPGQSPKLLIYSASYRYTGVPDRFTGTGSGTDFTFTISSVQAEDLAVYFCQQQYTTPYTFGGGTKLEIKT
notes: the HC/LC entries may hold it too; also called clone 2-8
